Laboratory results taken from patent publication US20220177457A1, “SMALL MOLECULES THAT BIND CYCLIN-DEPENDENT KINASE INHIBITOR 1B (P27KIP1)” (St. Jude Children's Hospital, Inc., priority 2019, published 2022).

Experiments:
p27-KID = p27-KID (Homo sapiens, UniProt P46527); assay: 2D 1H-15N HSQC NMR screening and titration of compounds into 15N-p27-KID; conditions: read-out: Kd (from CSP); single-site binding model fitted to chemical shift perturbation; 298 K, pH 6.5
Description: Two-dimensional (2D)^1H-^15N HSQC NMR experiments were performed using a SampleJet sample changer. […] Chemical shift perturbation values were quantified using the equation Δδ=√{square root over (ΔδH^2+(0.2ΔδN)^2)}. The statistical significance was based on a threshold defined as the average CSP value plus two times the standard deviation of the mean (Δδave+2σ).

Cdk2/cyclin A [1] = target: T1, Cdk2/cyclin A (Homo sapiens, UniProt P24941); assay: Isothermal titration calorimetry of p27 variants into Cdk2/cyclin A; conditions: ITC at 25° C., binding to Cdk2/cyclin A
T1 construct: Full length human Cdk2; made in house
Description: (§1) ITC experiments were performed using a MicroCal ITC200 calorimeter with p27 variants in the syringe and Cdk2/cyclin A and Cdk2, respectively, in the cell. Prior to each set of experiments, protein samples were extensively dialyzed together against ITC buffer containing 20 mM HEPES, pH 7.5, 300 mM NaCl, 5 mM TCEP. A standard titration consisted of 19 injections of 2-μl of p27 variant (100 μM) into a solution of Cdk2/cyclin A (10 μM) or Cdk2 (10 μM), respectively. The time interval between injections was 180 s. Experiments were performed at 25° C. Thermodynamic parameters were obtained by fitting the raw data using Origin software (OriginLab) according to the manufacturers instructions using a 1:1 binding model to obtain values of the enthalpy of binding (ΔH), Gibbs free energy of binding (ΔG), entropy of binding (ΔS), and stoichiometry factor (N). Experiments were performed in triplicate and mean and standard deviations of the mean values of these parameters are reported.

Cdk2 = target: T2, Cdk2 (Homo sapiens, UniProt P24941); assay: Isothermal titration calorimetry of p27 variants into Cdk2; conditions: ITC at 25° C., binding to Cdk2
T2 construct: Full length human Cdk2; made in house
Description: as §1

Cdk2/cyclin A [2] = target: T1, Cdk2/cyclin A; assay: Cdk2/cyclin A kinase activity assay (32P incorporation into Histone H1); type: biochemical; conditions: Histone H1 as substrate; read-out: Half maximal Cdk2/cyclin A inhibitory concentration (IC50)
Description: Cdk2/Cyclin A ([…]) was mixed with Histone H1 (50 μM; EMD Millipore) and varied amounts of p27 constructs and incubated for 3 hours at 4° C. […] IC50 values were determined by curve fitting using GraphPad Prizm 7 software. Experiments were performed in triplicate and mean IC50 and standard deviations of the mean values are reported.

Chain of p27-KID (P46527 22-105): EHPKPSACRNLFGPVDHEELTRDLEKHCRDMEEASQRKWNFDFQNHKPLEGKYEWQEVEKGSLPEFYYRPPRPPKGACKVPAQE

Row | Kd (p27-KID) [µM] | Kd (Cdk2/cyclin A [1]) [µM] | ΔG (Cdk2/cyclin A [1]) [kcal/mol] | ΔH (Cdk2/cyclin A [1]) [kcal/mol] | −TΔS (Cdk2/cyclin A [1]) [kcal/mol] | Kd (Cdk2) [µM] | ΔG (Cdk2) [kcal/mol] | ΔH (Cdk2) [kcal/mol] | −TΔS (Cdk2) [kcal/mol] | IC50 (Cdk2/cyclin A [2]) [µM] | Compound
1 | 4800 ± 1300 | – | – | – | – | – | – | – | – | – | O=c1oc2cc(OCCO)ccc2c2c1CCCC2 [SJ710]
2 | – | 0.134 ± 0.0235 | -9.4 ± 0.1 | -24.7 ± 1.8 | 15.3 ± 1.9 | 0.231 ± 0.0674 | -9.1 ± 0.2 | -24.5 ± 0.7 | 15.4 ± 0.9 | 0.067 ± 0.022 | p27-D2: D2 sub-domain of p27, residues 58-105 of human p27 (RKWNFDFQNHKPLEGKYEWQEVEKGSLPEFYYRPPRPPKGACKVPAQE; UniProt P46527 58-105, looked up, fragment)
